B1: Regulatory protein NPR1 (Arabidopsis thaliana (Mouse-ear cress)), P93002 (parent)
chain: MDTTIDGFADSYEISSTSFVATDNTDSSIVYLAAEQVLTGPDVSALQLLSNSFESVFDSPDDFYSDAKLVLSDGREVSFHRCVLSARSSFFKSALAAAKKEKDSNNTAAVKLELKEIAKDYEVGFDSVVTVLAYVYSSRVRPPPKGVSECADENCCHVACRPAVDFMLEVLYLAFIFKIPELITLYQRHLLDVVDKVVIEDTLVILKLANICGKACMKLLDRCKEIIVKSNVDMVSLEKSLPEELVKEIIDRRKELGLEVPKVKKHVSNVHKALDSDDIELVKLLLKEDHTNLDDACALHFAVAYCNVKTATDLLKLDLADVNHRNPRGYTVLHVAAMRKEPQLILSLLEKGASASEATLEGRTALMIAKQATMAVECNNIPEQCKHSLKGRLCVEILEQEDKREQIPRDVPPSFAVAADELKMTLLDLENRVALAQRLFPTEAQAAMEIAEMKGTCEFIVTSLEPDRLTGTKRTSPGVKIAPFRILEEHQSRLKALSKTVELGKRFFPRCSAVLDQIMNCEDLTQLACGEDDTAEKRLQKKQRYMEIQETLKKAFSEDNLELGNSSLTDSTSSTSKSTGGKRSNRKLSHRRR
partner: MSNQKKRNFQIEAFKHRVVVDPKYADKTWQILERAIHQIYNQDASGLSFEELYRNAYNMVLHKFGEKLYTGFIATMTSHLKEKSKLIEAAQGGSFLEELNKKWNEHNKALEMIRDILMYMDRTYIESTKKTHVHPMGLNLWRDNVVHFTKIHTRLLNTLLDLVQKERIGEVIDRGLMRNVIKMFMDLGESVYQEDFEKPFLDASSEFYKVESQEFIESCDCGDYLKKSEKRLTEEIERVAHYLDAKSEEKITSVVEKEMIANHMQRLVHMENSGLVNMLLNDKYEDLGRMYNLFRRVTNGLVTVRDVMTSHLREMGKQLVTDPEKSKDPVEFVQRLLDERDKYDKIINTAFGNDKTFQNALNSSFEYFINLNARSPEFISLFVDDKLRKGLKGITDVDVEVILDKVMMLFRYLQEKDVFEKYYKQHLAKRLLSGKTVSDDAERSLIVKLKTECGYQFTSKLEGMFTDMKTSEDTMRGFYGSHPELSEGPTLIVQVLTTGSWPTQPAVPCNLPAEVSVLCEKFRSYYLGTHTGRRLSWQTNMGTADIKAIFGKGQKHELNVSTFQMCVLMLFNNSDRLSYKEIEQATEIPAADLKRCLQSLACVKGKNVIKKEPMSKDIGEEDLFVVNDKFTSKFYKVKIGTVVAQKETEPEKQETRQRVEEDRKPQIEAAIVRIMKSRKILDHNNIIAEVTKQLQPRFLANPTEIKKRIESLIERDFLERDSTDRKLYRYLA

In this experiment the parent is B1. Particulars: with cul3a_arath CUL3A.
As for MDTTIDGFADAYEIASTSFVATDNTDSSIVYLAAEQVLTGPDVSALQLLSNSFESVFDSPDDFYSDAKLVLSDGREVSFHRCVLSARSSFFKSALAAAKKEKDSNNTAAVKLELKEIAKDYEVGFDSVVTVLAYVYSSRVRPPPKGVSECADENCCHVACRPAVDFMLEVLYLAFIFKIPELITLYQRHLLDVVDKVVIEDTLVILKLANICGKACMKLLDRCKEIIVKSNVDMVSLEKSLPEELVKEIIDRRKELGLEVPKVKKHVSNVHKALDSDDIELVKLLLKEDHTNLDDACALHFAVAYCNVKTATDLLKLDLADVNHRNPRGYTVLHVAAMRKEPQLILSLLEKGASASEATLEGRTALMIAKQATMAVECNNIPEQCKHSLKGRLCVEILEQEDKREQIPRDVPPSFAVAADELKMTLLDLENRVALAQRLFPTEAQAAMEIAEMKGTCEFIVTSLEPDRLTGTKRTSPGVKIAPFRILEEHQSRLKALSKTVELGKRFFPRCSAVLDQIMNCEDLTQLACGEDDTAEKRLQKKQRYMEIQETLKKAFSEDNLELGNSSLTDSTSSTSKSTGGKRSNRKLSHRRR [S11A;S15A], the “effect of a mutation on the interaction” value was “decreasing interaction”.
